In publication doi:10.1101/2021.12.02.470928:

Legend:
Experiment in all cases: BLI
[1] = target: biotinylated MYC(1-88 P21A)
[2] = target: biotinylated MYC(1-88 Y22A)
[3] = target: biotinylated MYC(1-88 F23A)
[4] = target: biotinyl-MB0 peptide (MYC 16-33) (UniProt P01106)
[5] = target: biotinylated MYC(1-88 Y24A)
[6] = target: biotinylated MYC(1-88ΔMB0) (UniProt P01106)

fold weakening of KD against wild-type MYC(1-88) [1]: > 5 fold
fold weakening of KD against wild-type MYC(1-88) [2]: > 5 fold
fold weakening of KD against wild-type MYC(1-88) [3]: > 5 fold
Kd [4]: 9.4 µM
fold weakening of KD against wild-type MYC(1-88) [5]: > 5 fold
Kd [6]: > 100 µM
B1: PNUTS(1-148), PNUTS amino-terminal domain (PAD) (domain or fragment)
chain: MGSGPIDPKELLKGLDSFLNRDGEVKSVDGISKIFSLMKEARKMVSRCTYLNILLQTRSPEILVKFIDVGGYKLLNNWLTYSKTTNNIPLLQQILLTLQHLPLTVDHLKQNNTAKLVKQLSKSSEDEELRKLASVLVSDWMAVIRSQS
